Test system: MS2 coat protein
Experiment: apparent KD of MS2 coat protein; designed switch direction (-1 OFF switch, 1 ON switch): -1; higher = weaker reporter binding
Method in brief: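 Stalled E. coli RNA polymerase transcribed designed RNA switches on Illumina chips, which were then titrated with SNAP-549-labelled MS2 coat protein, doubling from 0.7 or 1.5 nM to 3 µM. Steps lasted from 0.8–1.5 h at the lowest concentration to 10–20 min at the highest. The apparent KD is each design's median over clusters of curve-fitted normalised fluorescence.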

[1] = Eterna round: R95, input ligand: microRNA oligo, concentration not stated
[2] = Eterna round: R95, input ligand: FMN 200 uM
[3] = Eterna round: R95, input ligand: none
[4] = input ligand: microRNA oligo, concentration not stated

Row | Sequence | apparent KD of MS2 coat protein [1] | apparent KD of MS2 coat protein (input ligand: FMN 200 uM) | apparent KD of MS2 coat protein (input ligand: none) | further results
1 | CAGGAAAUAGAGGAUAUAGGAGUCGAUAGACUCCUAGAAGGCUAUACAUGAGGAUCACCCAUGUGUCCUACCUG [Fiskers Ex 6 - 69] (puzzle: Exclusion 6) | 14.6 nM | – | – | –
2 | CAGGAUAGAGGAUAUACAUAGAUACAGAUUCAUGUGGUCCUACAUGAGGAUCACCCAUGUAGAAGGCUAUCCUG [Fiskers Ex 2 - 22] (puzzle: Exclusion 2) | 180 nM | – | – | –
3 | CAGGCUACAAACGCUCGUCACAUGAGGAUCACCCAUGUACGCCUCUAUCGUAAGUCCAGCGUUCGCUGGCAAGGGUA [Eternabot (Original) Solution 19] (Eterna round: R97, puzzle: Sensor, turn-off variant 1) | – | 47.5 nM | 56.2 nM | –
4 | CAGGGUAGAGGAUAUACGUAGGUACAGAUCUGUGUGUUCCUACAUGAGGAUCACCCAUGUAGAAGGCUAGCCUG [LRO-Excl2-08] (puzzle: Exclusion 2) | 77.9 nM | – | – | –
5 | CAGUACAGAGGAUAUACAUGAGGAUCACCCAUGUGUUUCAGCUAGGAGACUAGCGAAAGUAGAAGGCUGUACUA [salish99_ex3_r4_003] (Eterna round: R97, puzzle: Exclusion 3) | – | 25.7 nM | 9.41 nM | –
6 | CAGUACUACAAGCUUAGGGACAUGAGGAUCACCCAUGUUCGUCUUAUUGAUCUAGGUACGCUGACGUACCUAGAUCU [JL-sv1-2.12 Brourd mod] (puzzle: Sensor v3, turn-off variant 1) | 29.9 nM | – | – | apparent KD of MS2 coat protein [2]: 15.7 nM; apparent KD of MS2 coat protein [3]: 15 nM
7 | CAGUACUACAAGCUUUGGGACAUGAGGAUCACCCAUGUUCGUCUUAUUGAUCUAGGUACGCUGACGUACCUAGAUCU [JL-sv1-2.11 Brourd mod] (puzzle: Sensor v3, turn-off variant 1) | 33.1 nM | – | – | apparent KD of MS2 coat protein [2]: 16.7 nM; apparent KD of MS2 coat protein [3]: 15.3 nM
8 | CAGUACUGAGGAUAUACAUGAGGAUCACCCAUGUAUCCAAGCUAGGAAACUAGCAAAUGUAGAAGGCAGUACUG [Ex3: 821] (Eterna round: R96, puzzle: Exclusion 3) | – | – | – | apparent KD of MS2 coat protein [4]: 30.9 nM
9 | CAGUACUGAGGAUAUACAUGAGGAUCACCCAUGUAUCCUAGCUAGGAAACUAGCAAAAGUAGAAGGCAGUACUG [Ex3: 819] (Eterna round: R96, puzzle: Exclusion 3) | – | – | – | apparent KD of MS2 coat protein [4]: 12.4 nM
10 | CAGUACUGAGGAUAUACAUGAGGAUCACCCAUGUCAGAGAUACUAGUGAGGUCGAUUAGUAGAAGGCAGUACUG [Mat X3R4 m30] (Eterna round: R97, puzzle: Exclusion 3) | – | 621 nM | 43.5 nM | –
11 | CAGUACUGAGGAUAUACAUGAGGAUCACCCAUGUCCUAAAAGUAGGAUACUACUAUUAGUAGAAGGCAGUACUG [Fiskers Ex 3 828 mod 23] (puzzle: Exclusion 3) | 18.1 nM | – | – | –
12 | CAGUACUGAGGAUAUACAUGAGGAUCACCCAUGUCUUCCAGCUAGGAAACUAGCAAAUGUAGAAGGCAGUACUG [Salish 065 m9] (Eterna round: R97, puzzle: Exclusion 3) | – | 639 nM | 71.8 nM | –
13 | CAGUACUGAGGAUAUACAUGAGGAUCACCCAUGUGAGAGAUACUAGUGAGGUCGAUUAGUAGAAGGCGGUACUG [Mat X3R4 m5] (Eterna round: R97, puzzle: Exclusion 3) | – | 306 nM | 40.8 nM | –
14 | CAGUACUGAGGAUAUACAUGAGGAUCACCCAUGUGAUGUAGUGCACGCGUACGUGUACGUAGAAGGCAGUACUG [JL 3.27 m10] (Eterna round: R97, puzzle: Exclusion 3) | – | 49.3 nM | 17.1 nM | –
15 | CAGUACUGAGGAUAUACAUGAGGAUCACCCAUGUGAUUGAGUGCACGCGUACGUGUACGUAGAAGGCAGUACUG [JL 3.27 m11] (Eterna round: R97, puzzle: Exclusion 3) | – | 194 nM | 18.1 nM | –
16 | CAGUACUGAGGAUAUACAUGAGGAUCACCCAUGUGCACCAGCUAGGAAACUAGCAAAAGUAGAAGGCAGUACUG [828 mod 2 m9] (Eterna round: R97, puzzle: Exclusion 3) | – | 112 nM | 15.5 nM | –
17 | CAGUACUGAGGAUAUACAUGAGGAUCACCCAUGUGUCCUAGCUAGGAAACUAGCAAAAGUAGAAGGCAGUACUG [Fiskers Ex 3 828 mod 5] (puzzle: Exclusion 3) | 21.2 nM | – | – | apparent KD of MS2 coat protein [2]: 249 nM; apparent KD of MS2 coat protein [3]: 22.9 nM
18 | CAGUACUGAGGAUAUACAUGAGGAUCACCCAUGUGUCCUCUAUUAGGAAACUAGUUAUGUAGAAGGCAGUACUG [Omei Ex3 Mod of Eli 4.27 v10] (Eterna round: R97, puzzle: Exclusion 3) | – | 1060 nM | 1050 nM | –
19 | CAGUACUGAGGAUAUACAUGAGGAUCACCCAUGUGUGUGAAAUUUAUGUGGUUGUUUUGUAGAAGGCAGUACUG [JR_Ex3_Sub029] (Eterna round: R97, puzzle: Exclusion 3) | – | 92.1 nM | 855 nM | –
